Measured values: PMC2714321, “DNA binding kinetics of two response regulators, PlnC and PlnD, from the bacteriocin regulon of Lactobacillus plantarum C11”

T1: f-PlnC (Lactobacillus plantarum C11, UniProt Q48829 1-247)
T1 sequence: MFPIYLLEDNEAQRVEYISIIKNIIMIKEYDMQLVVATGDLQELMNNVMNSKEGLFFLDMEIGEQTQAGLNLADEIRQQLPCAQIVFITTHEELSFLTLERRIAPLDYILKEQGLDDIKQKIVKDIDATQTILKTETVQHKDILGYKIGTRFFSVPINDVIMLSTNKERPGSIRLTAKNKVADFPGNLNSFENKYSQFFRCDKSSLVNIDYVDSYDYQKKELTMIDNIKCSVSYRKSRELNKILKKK

T2: f-PlnD (Lactobacillus plantarum C11, UniProt Q48830 1-247)
T2 sequence: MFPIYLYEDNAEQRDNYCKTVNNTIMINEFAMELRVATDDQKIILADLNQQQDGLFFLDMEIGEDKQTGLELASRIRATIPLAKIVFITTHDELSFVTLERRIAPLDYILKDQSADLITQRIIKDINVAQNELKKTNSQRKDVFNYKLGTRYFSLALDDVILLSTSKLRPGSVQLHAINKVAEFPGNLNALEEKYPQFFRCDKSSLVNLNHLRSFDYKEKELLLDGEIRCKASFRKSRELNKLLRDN

B1: PplnAΔL (dsDNA)
DNA 1: CATGGTGATTTTAAAATTTATTTAAAAAATGTACGTTAATAGAAATAATT
DNA 2: AATTATTTCTATTAACGTACATTTTTTAAATAAATTTTAAAATCACCATG
B2: PplnM (dsDNA)
DNA 1: TGAATTATTGTACGATAATATCTAAAAATATTACGTTTATAAAAATATCG
DNA 2: CGATATTTTTATAAACGTAATATTTTTAGATATTATCGTACAATAATTCA
B3: PplnJ (dsDNA)
DNA 1: ACTTTCAAGTTACGTTAAATCGATTAAATAGTACGATAACAAATTTAAAA
DNA 2: TTTTAAATTTGTTATCGTACTATTTAATCGATTTAACGTAACTTGAAAGT
B4: PplnA (dsDNA)
DNA 1: CATGGTGATTCACGTTTAAATTTAAAAAATGTACGTTAATAGAAATAATT
DNA 2: AATTATTTCTATTAACGTACATTTTTTAAATTTAAACGTGAATCACCATG
B5: PplnE (dsDNA)
DNA 1: ATTGGTATTTGACGTTAAGAGAACGTTTTTTTACTTTTATAATTTTTTCA
DNA 2: TGAAAAAATTATAAAAGTAAAAAAACGTTCTCTTAACGTCAAATACCAAT
B6: PplnG (dsDNA)
DNA 1: GCCTGATGAGGACATTTATCATAAAATTATGTACGTTAATAGATAGTTGG
DNA 2: CCAACTATCTATTAACGTACATAATTTTATGATAAATGTCCTCATCAGGC

Key:
Conditions in all cases: protein: native; tags: N-terminal FLAG; chain copies: 2; label: biotin on forward strand; blunt
f-PlnC [1] = target: T1, f-PlnC; experiment: SPR; single site, Langmuir 1:1 model; SPR (Biacore 3000, SA chip): 20 mM Tris-HCl pH 8.0, 100 mM NaCl, 5 mM MgCl2, 1 mM EDTA, 0.025% Triton X-100, 25°C; signals corrected by subtraction of control DNA (S8/rc) reference cell, no outcome reported for it
f-PlnD = target: T2, f-PlnD; experiment: SPR; site 1 (KD1), heterogeneous ligand model; SPR (Biacore 3000, SA chip): 20 mM Tris-HCl pH 8.0, 100 mM NaCl, 5 mM MgCl2, 1 mM EDTA, 0.025% Triton X-100, 25°C; signals corrected by subtraction of control DNA (S8/rc) reference cell, no outcome reported for it
f-PlnC [2] = target: T1, f-PlnC; experiment: as above
f-PlnC [3] = target: T1, f-PlnC; experiment: SPR; site 1 (KD1), heterogeneous ligand model; Discussion gives 1e-7 range; SPR (Biacore 3000, SA chip): 20 mM Tris-HCl pH 8.0, 100 mM NaCl, 5 mM MgCl2, 1 mM EDTA, 0.025% Triton X-100, 25°C; signals corrected by subtraction of control DNA (S8/rc) reference cell, no outcome reported for it
f-PlnC [4] = target: T1, f-PlnC; experiment: SPR; site 1 (KD1), ka fitted locally; SPR (Biacore 3000, SA chip): 20 mM Tris-HCl pH 8.0, 100 mM NaCl, 5 mM MgCl2, 1 mM EDTA, 0.025% Triton X-100, 25°C; signals corrected by subtraction of control DNA (S8/rc) reference cell, no outcome reported for it

Binder | Kd (f-PlnD) | Kd (f-PlnC [2]) | also measured
B1 |  |  | Kd (f-PlnC [1]): 300 nM
B2 | 560 nM | 380 nM | 
B3 | 12000 nM |  | 
B4 | 1500 nM |  | Kd (f-PlnC [3]): 1500 nM
B5 |  | 210 nM | 
B6 | 14000 nM |  | Kd (f-PlnC [4]): 170 nM
